Reference: the supplement of paper PMC10567573

B1: TRIM55 (parent)
chain: YLPTRGGTTMASGGRFRCPSCRHE
B2: ELF3 (parent)
chain: RLVYKFGKNSSGWKEEEVLQSRN

Variants of: B1
Assay: protein stability index of a GFP-peptide fusion (GPS, HEK-293T) (PSI 1-6); higher = more stable
Settings: c terminus: a fixed tail appended
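Also: lentivirally expressed fusions sorted by FACS into six bins by GFP to DsRed ratio, PSI derived from sequencing read proportions per bin multiplied by bin number.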

Protein stability index of substitutions, site by site:
R22: W 2.01; N 2.4; Q 2.12; K 2.94; Y 2.07; P 3.78; A 2.59
F16: K 2.01; T 2.98; S 3.94; C 3.06
R17: S 2.9; I 1.69
E24: D 1.93; P 2.29; Y 2.55; M 1.6; Q 3.06; A 1.59; K 2.04; H 1.47; T 1.78
G13: M 1.96; Q 1.51; N 1.89
H23: M 1.52; C 3.34; K 3.39
C21: H 3; I 3.09; T 3.14; Y 2.35; N 3.96
P19: E 2.01; D 3.35; Q 3.5
Y1: G 3.18; M 1.67; D 2.15; I 2.52; L 2.06; W 2.99; H 2.79; V 1.89; C 2.14
G14: N 2.42; F 2.04; M 2.76; Q 1.26
T9: P 2.49; M 1.36; E 2.66
A11: I 1.05; K 1.36; E 2; N 1.65; H 1.83; F 1.98
S12: C 1.41; M 1.76; T 1.49
G6: E 1.67; L 1.76; Y 1.37; C 1.84; N 1.21
C18: F 2.43; T 3.74; G 3.27; S 3.61; L 3.47; E 2.98; W 1.7; K 3.34
P3: D 1.04; N 2.29
S20: E 2.01; H 2.13; W 1.12; G 1.92; D 1.98
L2: R 1.77; P 1.71; F 2.46
G7: V 1.37; Y 2.17; R 1.12; K 1.01; A 1.64; I 1.45; E 1.75; T 2.33; Q 2.24
R15: C 2.02; D 2.78; M 1.31; V 1.24; S 1.65; E 2.35; H 1.39
T4: C 3.98; E 3.35; L 2.73; V 4.07; P 1.36; Y 1.24; W 1
R5: G 2; N 1.44; E 2.4; D 1.73; H 1.32; I 1.98
M10: I 2.27; V 1.65; P 2.5; Q 2.03

Variants of: B2
Assay: as above
Settings: c terminus: native

Protein stability index: each site, then its substitutions
K14: R 2.43; T 2.32; E 3.31; Q 3; D 3.25; A 2.02; L 2.7; M 2.88; P 2.58; C 2.12; S 2.89; I 2.25; Y 2.28; H 1.41; F 2.49; N 1.92; V 2.25
E15: I 1.55; V 2.49; D 1.9; H 2.81; G 1.76; A 1.43; W 1.86; N 1.94; Q 1.76; F 3; K 3.27; C 2.49
G12: L 3.23; I 1.76; H 2.02; S 2.5; D 3.19; W 1.88; N 1.98; C 2.05; T 1.87; Y 2.57; A 2.37; F 1.82; K 1.69; P 2.46; E 2.98; V 1.79; Q 1.95
N23: Y 2.31; W 2.13; E 3.68; K 3.52; Q 1.87; I 1.8; F 2.86; A 2.28; D 2.7; L 3.28; V 2.62; S 2.51; M 1.81; P 3.22; G 2; C 1.7; T 2.37
L19: V 2.55; K 3.02; F 1.49; M 2.43; I 2.67; A 3.3; Q 3.85; H 2.98; D 4.52; E 4.05; N 3.65; C 2.33; G 3.19; T 3.84; R 2.51; P 3.12; Y 1.52
V18: K 2.94; H 3.01; A 2.49; R 2.29; N 2.59; G 2.9; E 3.17; D 3.45; M 1.84; C 2.44; I 2.32; Q 2.35; L 2.08; T 2.16; W 1.62; F 1.73; P 2.81; S 2.68; Y 1.25
Q20: I 1.71; G 3.4; V 1.71; T 1.58; Y 1.79; L 2.19; A 1.89; E 3.52; M 2.06; N 3.32; D 3.28; W 1.67; C 2.22; P 2.38; S 2.4; K 1.25; H 1.76
S21: Q 3.82; V 1.82; C 2.39; F 1.94; D 3.56; N 2.49; A 2.12; E 3.19; Y 2.72; M 2.31; L 3.31; I 2.41; P 3.39; G 2.26; K 2.95; T 2.1
E17: K 1.3; S 1.13; H 1.11; A 2.06; F 1.75; G 1.93; D 1.75; T 1.51; Q 2.09; V 1.98; P 2.22; M 2.27; C 2.62; N 1.6; Y 2.98; I 2.02
R22: A 2.85; C 2.35; N 3.96; M 2.72; I 3.42; H 3.53; T 3.51; K 3.75; S 2.92; F 3.01; P 3.62; L 2.56; Y 2.06; Q 3.02; D 4.7
S10: M 1.9; R 1.18; Y 1.56; Q 2.51; N 2.1; P 2.1; K 2.23; T 3.02
E16: I 3.06; L 3.56; Q 1.25; H 1.25; G 1.5; V 1.04; D 2.15; C 1.94; F 3.9; K 2.46; Y 2.91; N 2.51
S11: F 1.09; L 1.78; H 1.89; C 1.84; D 3.33; M 1.73; T 2.83; V 3.33; N 1.89; R 2.05; E 3.01; P 2.79; I 1.54; K 1.6; Y 2.21
W13: Y 2.96; V 3; H 4.28; E 4.85; C 4.09; F 3.03; G 4.27; Q 3.29; D 4.86; M 3.91; P 4.45; R 3.74; K 3.85; I 3.91; N 3.67; T 4.2; A 4.73; S 3.78; L 4.02
